Laboratory results from US20140017242A1, “ANTI-BRADYKININ B2 RECEPTOR (BKB2R) MONOCLONAL ANTIBODY” (Diamedica, Inc., priority 2010, published 2014).

Experiments:
ZDF fa/fa rats [1] = test: Oral glucose tolerance test in ZDF fa/fa rats, humanized mAbs; type: in vivo, rat; conditions: single s.c. administration 0.2 mg/kg
From the text: This example describes evaluation of mouse mAb 5F12G1 and its twelve humanized clones in Zucker Diabetic fatty (ZDF fa/fa) rats for effects on insulin sensitivity in animals. Zucker Diabetic Rats develop symptoms similar to type 2 diabetes and are genetically resistant to insulin. […] Therefore, the Zucker rat is a good model to test the ability of the monoclonal antibody to increase insulin sensitivity, especially in an OGTT.
Male ZDF fa/fa rats were obtained from Charles River (Kingston, ON). Upon arrival, rats were ten weeks of age. The rats were housed individually per cage in a room with a photo cycle of 12 hours of light and 12 hours of dark and an ambient temperature of 70-72° F. and fed on regular rodent diet and water ad libitum. After seven days of acclimatization, rats were grouped into fourteen groups of three rats per group (Table 10).
Oral Glucose Tolerance Test. An oral glucose tolerance test (OGTT) was performed on overnight fasted (16 hours) rats. Rats received subcutaneously administered humanized mAbs, mouse mAb 5F12G1 (positive control) and PBS (vehicle control) at a dose of 0.2 mg/kg body weight, thirty minutes prior to glucose administration. D-Glucose was prepared in distilled water and administered orally at 2 g/kg body weight. Blood glucose levels were measured before administration of humanized mAbs, 5F12G1 or vehicle (t=−30 minutes) and just before glucose loading (0 minute), and at timepoints of 30, 60, 90 and 120 minutes, using Accu-chek™ glucose meter.

ZDF fa/fa rats [2] = test: 21-day ZDF fa/fa study: urinary glucose (glycosuria); type: in vivo, rat; conditions: day 14
Wistar rats = test: Acute effects on blood pressure in anesthetized Wistar rats; type: in vivo, rat; conditions: single dose 0.5 mg/kg IV
Protocol: Male Wistar rats (Charles River Laboratories, Boston, Mass.) were 7.0 to 7.6 weeks old, weighed an average of 245 grams, and were maintained on Purina 5001 rat chow ad libitum. Following one week of laboratory acclimatization, treatments femoral catheter surgery and drug administration were conducted within a one-day period with measurements commencing the same day and continued during an ongoing three-week follow-up period. Treatment groups were (1) 3H3H3 (anti-BKB2R) antibody (n=8), (2) 3H3H9 (anti-BKB2R) antibody (n=8), (3) 1F2G7 (anti-BKB2R) antibody, (n=3), (4) 5F12G1 (anti-BKB2R) antibody (n=8).
Rats were anesthetized with ketamine (30 mg/kg, IM) and Inactin (50 mg/kg, IP). Cannulae were implanted in the femoral artery for blood pressure measurements and in the femoral vein for drug administration. Arterial line was filled with saline with 10 UI/ml of heparin to keep the line patent over the experiment and avoid frequent flushing of the arterial line. After 15-20 minutes of equilibration period, and once the blood pressure was stable, a baseline blood pressure was recorded for 15 minutes; then, drugs were administered and its effects on blood pressure assessed. For the antibodies a single dose (0.5 mg/kg) was administered and blood pressure recorded for three hours. All drugs were diluted in saline or PBS to achieve a total volume of 1 ml/kg. Drugs were slowly administered, on a 40-sec period on average. Animals were kept at 37° C. during the experiment. At the end of the experiments, animals were euthanized and no blood or tissues were collected.
Baseline blood pressure, length of blood pressure response to drug, maximum blood pressure change and Area Under the Curve (AUC) for the blood pressure response. Blood pressure at 1, 2 and 3 h after infusion for the antibodies.

[3] = system: diet induced obese (DIO) mice; test: Oral glucose tolerance test in DIO mice, single dose of 5F12G1; type: in vivo, mouse; conditions: single s.c. administration 1.0, 0.2 and 0.04 mg/kg
Protocol: This Example describes evaluation of oral glucose tolerance in diet induced obese (DIO) mice treated with the anti-BKB2R monoclonal antibody 5F12G1 (VH comprising SEQ ID NO:1, VL comprising SEQ ID NO:2). Male C57BL/6J mice (Jackson Laboratory, Bar Harbor, Me.) were maintained on a 60 kcal % fat diet with Research Diet and Arrowhead drinking water ad libitum and permitted to acclimatize for a period of eight weeks. Ten animals per group were treated according to the following treatment groups: 1, sterile PBS (vehicle control); 2, 1.0 mg/kg murine monoclonal antibody (mAb) 5F12G1; 3, 0.2 mg/kg mAb 5F12G1; 4, 0.04 mg/kg mAb 5F12G1.
Oral Glucose Tolerance Test. The Oral Glucose Tolerance Test (OGTT) was performed on overnight fasted (16 hours) mice. […] Blood glucose levels were measured before administration of vehicle or 5F12G1 (−30 minutes) and just before glucose loading (0 minute) and at ensuing timepoints of 15, 30, 60 90 and 120 minutes using an Accu-Chek™ glucose meter (Roche Diagnostics, Indianapolis, Ind.) according to the manufacturer's instructions.
At multiple time points (0, 15, 30, 60, 90 and 120 minutes) blood samples of approximately 50 μl each were collected and processed to isolate the plasma. The plasma samples were analyzed for insulin by an ELISA method using an ultra sensitive mouse insulin ELISA kit (Crystal Chem, Inc., Downers Grove, Ill.). […]

BKB2 receptor = biological target: T1, BKB2 receptor (Homo sapiens, UniProt P30411); test: Intracellular calcium release in CHO-K1/B2/Gα15 cells (FLIPR Calcium 4); type: cell-based; design: expressed in transfected cells; conditions: 0.5 mg/ml; normalized to the positive control; mean+/−SD, n=2
T1 sequence (P30411 1-391): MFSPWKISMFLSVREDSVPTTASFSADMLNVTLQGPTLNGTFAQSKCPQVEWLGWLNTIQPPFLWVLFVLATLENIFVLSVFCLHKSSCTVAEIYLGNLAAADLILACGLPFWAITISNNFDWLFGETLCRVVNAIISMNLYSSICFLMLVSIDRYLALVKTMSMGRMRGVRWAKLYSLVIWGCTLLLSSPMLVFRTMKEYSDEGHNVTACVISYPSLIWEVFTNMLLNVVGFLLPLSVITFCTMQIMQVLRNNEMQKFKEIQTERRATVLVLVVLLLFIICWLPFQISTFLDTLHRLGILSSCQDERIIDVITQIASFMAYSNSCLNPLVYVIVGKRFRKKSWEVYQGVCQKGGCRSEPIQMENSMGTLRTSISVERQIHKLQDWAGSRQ
Protocol: A stable CHO cell line expressing the human BKB2 receptor (CHO-K1/B2/Gα15) was used for the screening. The antibody was diluted to five different concentrations, from 0.5 mg/ml, via three-fold dilution increments, and screened on duplicate cell samples.
Expression and functional activity of the human BKB2 receptor in the CHO-K1/B2/Gα15 cell line were validated by exposure to the positive control, bradykinin.
To perform the assay, CHO-K1/B2/Gα15 cells were seeded in wells of a 384-well black-wall, clear-bottom plate at a density of 20,000 cells per well in 20 μL of growth medium 20 hours prior to the day of experiment, and maintained at 37° C./5% CO2. 20 μL of dye-loading solution (FLIPR™ Calcium 4 assay kit, Molecular Devices, Sunnyvale, Calif.) was added into each well and the plate was placed into a 37° C. incubator for 60 minutes, followed by 15 minutes at room temperature. The total reading time was 120 sec. After a 20-second reading to establish the baseline, the antibody or agonist were added to selected wells and the fluorescence signal was captured for another 100 seconds (21 s to 120 s). Readings from wells containing cells stimulated with assay buffer (0.03% Na3N PBS) containing 1% DMSO were chosen as the background values for screening; readings from wells containing cells stimulated with the agonist bradykinin (at 10 uM) were chosen as the positive control.

B1: 5F12G1: murine monoclonal anti-BKB2R antibody (IgG2b,κ), VH comprising SEQ ID NO:1, VL comprising SEQ ID NO:2 (antibody, listed as Mus musculus, V domains shown)
VH: EVKLEESGGGLVQPGGSMKLSCVVSGFTFSDYWMSWVRHSPEMGLEWVAEIRLKSDNYATHYAESVKGRFTISRDDSKSRLYLQINSLRGEDTGIYYCTRDYYAMEYWGQGTSVTVSS
VL: DVVMTQTPLSLPVSLGDQASISCRSSQTIVHSNGKTYLEWYLQKPGQSPKLLIYKVSNRFSGVPDRFSGSGSGTEFTLKISRVETEDLGVYYCFQASHVPYTFGGGTKLEIK
glucose tolerance (ZDF fa/fa rats [1]): showed improvement in glucose tolerance | area under curve (AUC) of blood glucose concentration after oral administration of glucose, compared to vehicle control (ZDF fa/fa rats [1]; 30 min prior to glucose 2 g/kg): decreased | urine glucose level (ZDF fa/fa rats [2]; 0.008 mg/kg s.c. every 3 days): 54 ± 11 mg/dL | urine glucose level (ZDF fa/fa rats [2]; 0.04 mg/kg s.c. every 3 days): 49 ± 6 mg/dL | urine glucose level (ZDF fa/fa rats [2]; 0.2 mg/kg s.c. every 3 days): 31 ± 2 mg/dL | Peak Blood Pressure Response (mm HG) (Wistar rats): 57 +/− 4 mm HG | Length (sec) of Blood Pressure Response (Wistar rats; until blood pressure returned to baseline): 168 ± 29 s | blood pressure at one hour after administration (Wistar rats; baseline 109±3 mm Hg): 95±3 mm Hg | blood pressure at three hours after administration (Wistar rats; baseline 109±3 mm Hg): 95±3 mm Hg | blood pressure at two hours after administration (Wistar rats; baseline 109±3 mm Hg): 94±3 mm Hg | insulin activity in OGTT [3]: dose dependently increased insulin activity | area under curve (AUC) of blood glucose concentration after oral loading of glucose, compared to vehicle control ([3]; 30 min before glucose 2 g/kg): decreased | percentage of activation (BKB2 receptor): 72.7+/−3.5%
